In general, stoichiometry N refers to the number of molecules, sites or subunits per partner or assembly.

The target in the experiment is His–CtBP1 (UniProt Q13363). Briefly: SEC. A general note: In gel filtration, larger molecules generally elute earlier.

With “His–CtBP1 (from UniProt Q13363 1-440) (natural protein)”, the stoichiometry N is 2.

The values are drawn from PMC6237275.
